From patent US6495673 (MEDICAL RESEARCH COUNCIL, dated 2002)
No end group written: not given here. *: point of attachment. Biotin = O=C1N[C@H]2[C@H](CS[C@H]2CCCCC(=O)*)N1

Assays:
[1] = target: Calmodulin-tagged phage DN323 (calmodulin displayed as a gene III fusion on filamentous phage, from phagemid … (filamentous phage, UniProt P0DP23 2-149)); assay: competition ELISA over time with 1000-fold excess of unlabeled peptide
[2] = target: T1, GST-phage fusion FV7 (glutathione S-transferase displayed on phage without calmodulin, from vector pFV7) (S. japonica; filamentous phage, UniProt P08515 1-218 = GST; P69168 19-424); assay: phage ELISA on streptavidin plate with biotin-peptide
T1 construct: Any vector tags of pCANTAB6 are not described; also called non-specific phage; E-fd (GST)
T1 sequence (P08515 1-218, tags or fused parts left off): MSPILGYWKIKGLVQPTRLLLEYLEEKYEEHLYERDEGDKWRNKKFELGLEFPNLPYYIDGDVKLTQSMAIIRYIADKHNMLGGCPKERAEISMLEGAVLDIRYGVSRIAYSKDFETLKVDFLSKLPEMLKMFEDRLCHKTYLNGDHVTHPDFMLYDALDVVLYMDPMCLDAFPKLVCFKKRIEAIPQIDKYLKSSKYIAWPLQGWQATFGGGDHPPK

With Biotin-CAAARWKKAFIAVSAANRFKKIS [biotin-labeled CAAARWKKAFIAVSAANRFKKIS peptide (SEQ ID NO: 15)] the koff [1] was less than 0.1 s⁻¹ and the binding result [2] was “no binding”.
